Data reported in patent US20180021429A1, “ANTICANCER AGENTS OR ANTIMETASTATIC AGENTS USING FSTL1 AND COMBINATION DRUG THEREOF” (PHARMA FOODS INTERNATIONAL CO., LTD., priority 2015, published 2018).
“Also recorded” adds a separate entry of the source.

Test system: human pancreatic cancer cell line Panc1
Assay: Inhibitory activity against activation of tumor cell by FSTL1, RANKL-/CCR2-positive cells (Examples 5, 7, 9-11)
Assay type: cell-based
Protocol: It is known that tumor cells activated by stimulation with FSTL1 highly express molecule groups promoting bone metastasis and increase metastatic invasive capacity (Cancer Research 73: 6185, 2013). Thus, […] cells/well of a human pancreatic cancer cell line Panc1 were suspended in 1 mL/well of D-MEM medium (GIBCO/Thermo Fisher Scientific Inc. Cat. No. C11885500BT) containing 10% fetal bovine serum, supplemented with 50 ng/mL (final concentration) of FSTL1 (R&D Systems, Inc.) and 10 μg/mL of the anti-FSTL1 antibody (#5-2, #5-8, #5-10, #5-43, #6-55, or #7-34) or its isotype mouse IgG (anti-DNP antibody) as a control antibody “Control”, and cultured under stimulation (6-well plate). 3 days thereafter, the number of cells was counted while the cells were stained with a PE-labeled anti-RANKL antibody (eBioscience Cat. No. 12-6619) and a PE-labeled anti-CCR2 antibody (R&D Systems, Inc. Cat. No. FAB151P) in order to examine the expression of markers indicating bone metastatic properties, and the contents of RANKL-positive cells and CCR2-positive cells were analyzed by flow cytometry using FACScan (Becton, Dickinson and Company) to calculate the numbers of cells per culture. […] Therefore, in Examples below, judgment was made with the number of cells as an index.
In the same way as in Example 5, a human pancreatic cancer cell line Panc1 was supplemented with 50 ng/mL (final concentration) of FSTL1 (R&D Systems, Inc.) and 10 μg/mL of the anti-FSTL1 antibody (the same clones as in Example 6) or a control antibody and cultured under stimulation.
3 days thereafter, the number of cells was counted while the cells were stained with a PE-labeled anti-RANKL antibody and a PE-labeled anti-CCR2 antibody, and the contents of RANKL-positive cells and CCR2-positive cells were analyzed by flow cytometry using FACScan (Becton, Dickinson and Company) to calculate the numbers of cells per culture (FIG. 5B).
(§1) In the same way as in Example 5, a human pancreatic cancer cell line Panc1 was supplemented with 20 ng/mL (final concentration) of FSTL1 and 10 μg/mL of the anti-FSTL1 antibody (#5-2, #5-8, or #6-55) or a control antibody and cultured under stimulation. 3 days thereafter, the number of cells was counted while the cells were stained with a PE-labeled anti-RANKL antibody and a PE-labeled anti-CCR2 antibody, and the contents of RANKL-positive cells and CCR2-positive cells were analyzed by flow cytometry using FACScan (Becton, Dickinson and Company) to calculate the numbers of cells per culture (FIG. 6B).
as §1, with “50” for “20”, “#5-3, #6-55, #7-34, #8-1, #8-4, #8-7,” for “#5-8,”, “#8-8)” for “#6-55)”, “culture.” for “culture (FIG. 6B).”
In the same way as in Example 5, a human pancreatic cancer cell line Panc1 was supplemented with 50 ng/mL (final concentration) of FSTL1 and 10 μg/mL of the anti-FSTL1 antibody (#6-55) or a control antibody and cultured under stimulation. 3 days thereafter, the number of cells was counted while the cells were stained with a PE-labeled anti-RANKL antibody and a PE-labeled anti-CCR2 antibody, and the contents of RANKL-positive cells and CCR2-positive cells were analyzed by flow cytometry using FACScan (Becton, Dickinson and Company) to calculate the numbers of cells per culture.
It is known that tumor cells activated by stimulation with FSTL1 highly express molecule groups promoting bone metastasis and increase metastatic invasive capacity (Cancer Research 73: 6185, 2013). […]

[1] = Example 7, FIG. 5B/35B, FSTL1 50 ng/mL, antibody 10 μg/mL, 3 days
[2] = Example 10, FIG. 6C/36C, FSTL1 50 ng/mL, antibody 10 μg/mL, 3 days
[3] = Example 9, FIG. 6B/36B, FSTL1 20 ng/mL, antibody 10 μg/mL, 3 days

Row | Molecule | inhibitory activity against the expansion of RANKL-positive cells and CCR2-positive cells [1] | inhibitory activity against the expansion of RANKL-positive cells and CCR2-positive cells [2] | inhibitory activity against the expansion of RANKL-positive cells and CCR2-positive cells [3] | other results
1 | #5-3: chicken-mouse chimeric anti-FSTL1 antibody clone; variable regions SEQ ID NO: 767 (light), 769 (heavy) (antibody, V domains shown, mouse constant regions) VH: AVTLDESGGGLQTPGGALSLVCKGSGFSFSSFNMFWVRQAPGKGLEWVAGIGKDGVPKYGAAVDGRATISKDNGQSTMRLQLNNLRAEDTGTYFCAKAAGGCSYDWCGIYAGDIDTWGHGTEVIVSS VL: ASTQPSSVSANPGETVKITCSGGSGYYYGWYQQKSPGSVPVTVIYNNNNRPSDIPSRFSGSKSGSTGTLTITGVRAEDEAVYYCGGYDNSGTGIFGAGTTLTVL | higher inhibitory activity |  |  | 
2 | #8-7: chicken-mouse chimeric anti-FSTL1 antibody clone; variable regions SEQ ID NO: 799 (light), 801 (heavy) (antibody, V domains shown, mouse constant regions) VH: AVTLDESGGGLQTPGGGLSLVCKGSGFTFSSFNMFWVRQAPGKGLEWVAGIGKDGVPKYGAAVDGRATISKDNGQSTLRLQLNNLRAEDTGTYFCAKAAGGCSYDWCGIYAGDIDTWGHGTEVIVSS VL: ASTQPSSVSANPGEAVKITCSGGSGSYYGWYQQKSPGSAPVTVIYNNNQRPSDIPSRFSGSKSGSTATLTITGVQAEDEAVYFCGGYDSSTGHGGIFGAGTTLTVL |  | high inhibitory activity; also recorded: higher inhibitory activity |  | 
3 | #5-8: chicken-mouse chimeric anti-FSTL1 antibody clone; variable regions SEQ ID NO: 771 (light), 773 (heavy) (antibody, V domains shown, mouse constant regions) VH: AVTLDESGGGLQTPGGGLSLVCKGSGFTFSSFNMFWVRQAPGKGLEWVAGIGKDGVPKYGTAVDGRATISKDNGQSTMRLQLNNLRAEDTGTYFCAKAAGGCSYDWCGIYTGDIDTWGHGTEVIVSS VL: ASTQPSSVSANPGEAVKITCSGGSGSYYGWYQQKSPGSAPVTVIYNNNQRPSDIPSRFSGSKSGSTATLTITGVQAEDEAVYFCGGYDSSTGHGGIFGAGTTLTVL | higher inhibitory activity |  | exhibited inhibitory activity against the expansion of RANKL-positive cells and CCR2-positive cells; also recorded: higher inhibitory activity | 
4 | #8-4: chicken-mouse chimeric anti-FSTL1 antibody clone; variable regions SEQ ID NO: 795 (light), 797 (heavy) (antibody, V domains shown, mouse constant regions) VH: AVTLDESGGGLQTPGGGLSLVCKGSGFTLSSFNMFWVRQAPGKGLEWVAGVGKDGGTAYGAAVDGRATISRDSGQSTVRLQLNNLRAEDTGTYFCAKAAGGCSYSWCGAYVGDLDAWGHGTEVIVSS VL: ASSQPSSVSANPGETVKITCSGGSGYYYGWYQQKSPGSAPVTVIYNNDNKPSDIPSRFSGSKSGSTGTLTITGVQVEDEAVYFCGGYDNSGTGIFGAGTTLTVL |  | high inhibitory activity; also recorded: higher inhibitory activity |  | 
5 | #5-2: chicken-mouse chimeric anti-FSTL1 antibody clone; variable regions SEQ ID NO: 763 (light), 765 (heavy) (antibody, V domains shown, mouse constant regions) VH: AVTLDESGGGLQTPGGGLSLVCKGSGFTFSSFNMFWVRQAPGKGLEWVAGVGKDGGTGYGAAVDGRATISKDNGQSTLRLQLNNLRAEDTGTYYCAKAAGGCSYGWCGSYVGDIDAWGHGTEVIVSS VL: ASTQPSSVSANPGEAVKITCSGGSGSYYGWYQQKSPGSAPVTVIYNNNQRPSDIPSRFSGSKSGSTATLTITGVQAEDEAVYFCGGYDSSTGHGGIFGAGTTLTVL |  | high inhibitory activity; also recorded: higher inhibitory activity |  | 
6 | #6-55: chicken-mouse chimeric anti-FSTL1 antibody clone; variable regions SEQ ID NO: 783 (light), 785 (heavy) (antibody, V domains shown, mouse constant regions) VH: AVTLDESGGGLQTPGGALSLVCKGSGFTFTSVTMQWVRQAPGKGLEWVASVCSGSSTYYAPAVKGRATISRDNGQSTVRLQLSNLRPEDTGTYYCAKIAGRARWSCTSAAYNIDAWGHGTEVIVSS VL: ASTQPSSVSAIPGETVKITCSGGGNNYGWYQQRSPGSAPVTVIYYNDNRPSNIPSRFSGSTSGSTSTLTITGVQADDEAIYYCGSWDSNTDSGIFGAGTTLTVL |  | high inhibitory activity; also recorded: higher inhibitory activity | exhibited inhibitory activity against the expansion of RANKL-positive cells and CCR2-positive cells; also recorded: higher inhibitory activity | dose dependence of the antibody (Example 11, FIG. 6D/36D, 5, 10, 20 μg/mL): the dose dependence of antibody was not confirmed; also recorded: the dose dependence of the antibody was not confirmed; inhibitory activity against the expansion of RANKL-positive cells and CCR2-positive cells (Example 11, FIG. 6D/36D, FSTL1 50 ng/mL, at all tested doses 5, 10 and 20 μg/mL): ~100%; inhibition of cell induction of RANKL-positive cells and CCR2-positive cells (Example 11, FIG. 6D/36D, dose dependence test): exhibited inhibitory activity; also recorded: strongly inhibited the cell induction of both RANKL-positive cells and CCR2-positive cells at the same time
